± gives the uncertainty stated by the source.
B1: Double-stranded RNA-specific adenosine deaminase, residues 296 to 358; numbered along this chain, P55265 (parent)
chain: MAEIKEKICDYLFNVSDSSALNLAKNIGLTKARDINAVLIDMERQGDVYRQGTTPPIWHLTDK

Variants of: B1
Assay: abundance fitness (aPCA) (normalised: wild type 0, dead -1); higher = more abundant; growth selection in yeast, the domain comes from the species named
Conditions: Homo sapiens

Q: Which abundance fitness does the source give for MAEIKEKICDYLFNVSDSSALNLAKNIGLTKARDINAVLIDMERQGDVYRQGATPPIWHLTDK here?
A: -0.033 ± 0.48

Q: Which abundance fitness does the source give for MAEFKEKICDYLFNVSDSSALNLAKNIGLTKARDINAVLIDMERQGDVYRQGTTPPIWHLTDK here?
A: -0.649 ± 0.082

Q: For MAEMKEKICDYLFNVSDSSALNLAKNIGLTKARDINAVLIDMERQGDVYRQGTTPPIWHLTDK, which abundance fitness is on record?
A: -0.217 ± 0.056

Q: For MAEWKEKICDYLFNVSDSSALNLAKNIGLTKARDINAVLIDMERQGDVYRQGTTPPIWHLTDK, which abundance fitness is on record?
A: -0.666 ± 0.07

Q: For MAEIKEKICDYLFNVSDSSALNLAKNIGLTKARDINAVLIDMERQGDVYEQGTTPPIWHLTDK, which abundance fitness is on record?
A: -0.392 ± 0.073

Q: For MAEIKEKICDYLFNVSDSSALNLAKNIGLTKARDINAVLIDMERQGDVYSQGTTPPIWHLTDK, which abundance fitness is on record?
A: -0.019 ± 0.044

Q: For MAEIKEKICDYLFNVSDSSALNLAKNIGLTKARDIEAVLIDMERQGDVYRQGTTPPIWHLTDK, which abundance fitness is on record?
A: 0.406 ± 0.055

Q: Which abundance fitness does the source give for MAEIKEKICDYLFNVSDSSALNLAKNIGLTKARDINAVLIDMERQGDVYRQGTTPPIWTLTDK here?
A: -0.052 ± 0.056

Q: Which abundance fitness does the source give for MAEIKEKICDYLFNVSDSSALNLAKNIGLTKARDINAVLIDMERQGDVYRQGTTPPIWWLTDK here?
A: -0.972 ± 0.1

Q: With MAEIKEKICDYLFNVSDSSALNLAKNIGLTKARDINAVLIDMERQGDVYRQGTTPPIWHFTDK as the variant, how does the abundance fitness read?
A: -0.598 ± 0.13

Q: Which abundance fitness does the source give for MAEIKEKICDYLFNVSDSSALNLAKNIGLTKARDINAVLIDMERQGDVYRQGTTPPIWHETDK here?
A: -0.226 ± 0.082

Q: Which abundance fitness does the source give for MAEIKEKICDYLFNVSDSSALNLAKNIGLTKARDINAVLIDMERQGDVYRQGTTPPIYHLTDK here?
A: -0.095 ± 0.067

Q: For MAEIKEKICDYLFNVSDSSALNLAKNIGLTKARDINAVLIDMERQGDVYRQGTTPPIKHLTDK, which abundance fitness is on record?
A: -0.303 ± 0.042

Q: With MAEIKEKICDYLFNVSDSSALNLAKNIGLTKARDINAVLIDMERQGDVYRQGTTPPIWHLMDK as the variant, how does the abundance fitness read?
A: -0.182 ± 0.062

Q: Which abundance fitness does the source give for MAEIKEKICDYLFNVSDSSALNLAKNIGLTKARDINAVLIDMERQGDVYRQGTTPPIWHLQDK here?
A: -0.52 ± 0.076

Q: Which abundance fitness does the source give for MAEIKEKICDYLFNVSDSSALNLAKNIGLTKARDINAVLIDMERQGDVYRQGTTPPIWHLWDK here?
A: -0.808 ± 0.099

Q: With MAEIKEKICDYLFNVSDSSALNLAKNIGLTKARDINAVLIDMERQGDVYRCGTTPPIWHLTDK as the variant, how does the abundance fitness read?
A: 0.051 ± 0.046

Q: With MAEIKEKICDYLFNVSDSSALNLAKNIGLTKARDINAVLIDMERQGDVYRVGTTPPIWHLTDK as the variant, how does the abundance fitness read?
A: 0.208 ± 0.046

Q: With MAEIKEKICDYLFNVSDSSALNLAKNIGQTKARDINAVLIDMERQGDVYRQGTTPPIWHLTDK as the variant, how does the abundance fitness read?
A: -0.026 ± 0.092

Q: With MAEIKEKICDYLFNVSDSSALNLAKNIGATKARDINAVLIDMERQGDVYRQGTTPPIWHLTDK as the variant, how does the abundance fitness read?
A: -0.103 ± 0.1

Q: With MAEIKEKICDYLFNVSDSSALNLAKNIGLTKARDVNAVLIDMERQGDVYRQGTTPPIWHLTDK as the variant, how does the abundance fitness read?
A: -0.034 ± 0.045

Q: With MAEIKEKICDYLFNVSDSSALNLAKNIGLTKARDPNAVLIDMERQGDVYRQGTTPPIWHLTDK as the variant, how does the abundance fitness read?
A: -0.257 ± 0.061

Q: For MAEIKEKICDYLFNVSDSSAYNLAKNIGLTKARDINAVLIDMERQGDVYRQGTTPPIWHLTDK, which abundance fitness is on record?
A: -0.111 ± 0.069

Q: For MAEIKEKICDYLFNVSDSSAMNLAKNIGLTKARDINAVLIDMERQGDVYRQGTTPPIWHLTDK, which abundance fitness is on record?
A: 0.029 ± 0.11

Q: With MAEIKEKICDYLFNVSDSSADNLAKNIGLTKARDINAVLIDMERQGDVYRQGTTPPIWHLTDK as the variant, how does the abundance fitness read?
A: 0.339 ± 0.083

Q: With MAEIKEKICDYLFKVSDSSALNLAKNIGLTKARDINAVLIDMERQGDVYRQGTTPPIWHLTDK as the variant, how does the abundance fitness read?
A: 0.434 ± 0.062

Q: For MAEIKEKICDYLFNVSDSSALNLAKNIGLTKARDINAVLIDMERQGDVYRQGTTPPIWHLTAK, which abundance fitness is on record?
A: 0.053 ± 0.046

Q: Which abundance fitness does the source give for MAEIKEKICDYLFNVSDSSALNLAKNIGLTKARDINAVLIDMERQGDVYRQGTTPPIWHLTGK here?
A: -0.19 ± 0.043

Q: Which abundance fitness does the source give for MAEIKEKIDDYLFNVSDSSALNLAKNIGLTKARDINAVLIDMERQGDVYRQGTTPPIWHLTDK here?
A: -0.678 ± 0.14

Q: For MAEIKEKIGDYLFNVSDSSALNLAKNIGLTKARDINAVLIDMERQGDVYRQGTTPPIWHLTDK, which abundance fitness is on record?
A: -0.389 ± 0.036

Q: Which abundance fitness does the source give for MAEIKEKIRDYLFNVSDSSALNLAKNIGLTKARDINAVLIDMERQGDVYRQGTTPPIWHLTDK here?
A: 0.233 ± 0.037

Q: With MAEIKEKIWDYLFNVSDSSALNLAKNIGLTKARDINAVLIDMERQGDVYRQGTTPPIWHLTDK as the variant, how does the abundance fitness read?
A: -0.018 ± 0.055

Q: With MAEIKEKINDYLFNVSDSSALNLAKNIGLTKARDINAVLIDMERQGDVYRQGTTPPIWHLTDK as the variant, how does the abundance fitness read?
A: 0.077 ± 0.12

Q: Which abundance fitness does the source give for MAEIKEKICDYLFNVSDSSALNLAKNIGLTKARDINAVLIDMERQGDVYRQGTYPPIWHLTDK here?
A: -0.386 ± 0.081

Q: Which abundance fitness does the source give for MAEIKEKICDYLFNVSDSSALNLAKNIGLTKARDINAVLIDMERQGDVYRQGTFPPIWHLTDK here?
A: -0.429 ± 0.12

Q: With MAEIKEKICDYLFNVSDSSALNLAKNIGLTKARDINAVLIDMERQGDVYRQGTTWPIWHLTDK as the variant, how does the abundance fitness read?
A: -0.721 ± 0.087

Q: With MAEIKEKICDYLFNVSDSYALNLAKNIGLTKARDINAVLIDMERQGDVYRQGTTPPIWHLTDK as the variant, how does the abundance fitness read?
A: -0.5 ± 0.38

Q: Which abundance fitness does the source give for MAEIKEKICDYLFNVSDSSALNLAKNIGLTKAEDINAVLIDMERQGDVYRQGTTPPIWHLTDK here?
A: 0.564 ± 0.085

Q: For MAEIKEKICDYLFNVSDSSALNLAKNIGLTKAPDINAVLIDMERQGDVYRQGTTPPIWHLTDK, which abundance fitness is on record?
A: -0.272 ± 0.071

Q: With MAEIKEKICDYLFNVSDSSALNLAKNIGLTKARDINAVLIDMERQGDVYRQGTTPPVWHLTDK as the variant, how does the abundance fitness read?
A: -0.108 ± 0.048

Q: With MAEIKEKICDYLFNVSDSSALNLAKNIGLTKARDINAVLIDMERQGDVYRQGTTPPFWHLTDK as the variant, how does the abundance fitness read?
A: -0.637 ± 0.064

Q: Which abundance fitness does the source give for MAEIKEKICDYLFNVSDSSALNLAKNIGLTKARDINAVLIDMERQGDVYRQGTTPPDWHLTDK here?
A: -0.191 ± 0.087

Q: Which abundance fitness does the source give for AAEIKEKICDYLFNVSDSSALNLAKNIGLTKARDINAVLIDMERQGDVYRQGTTPPIWHLTDK here?
A: -0.418 ± 0.13

Reference: the Human Domainome abundance scans (Beltran et al. 2025)
